The values that follow are results of earlier work, collected in PMC7022251.

The series addresses Beclin-1 BH3 (UniProt Q14457).
UniProt Q14457, sequence (Q14457 105-130): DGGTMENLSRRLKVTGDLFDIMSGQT

For M11 (from UniProt P89884), the Kd was 40 nM.
